# Experiments:
# [1] = test system: SUMO*-GFP (engineered SUMO 2F4, Smt3 R64T R71E, fused to GFP)
# [2] = test system: SMT3-GFP (wild-type SUMO-GFP fusion) [SUMO: Q12306]
# SMT3-GFP (wild-type SUMO-GFP fusion) [SUMO: Q12306], sequence (Q12306 whole entry, looked up, the tested form may be a part): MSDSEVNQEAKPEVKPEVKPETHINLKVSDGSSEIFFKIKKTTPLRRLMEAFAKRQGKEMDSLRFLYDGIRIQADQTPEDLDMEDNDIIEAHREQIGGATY
# SUMO*-GFP (engineered SUMO 2F4, Smt3 R64T R71E, fused to GFP), sequence (chain, as listed by the source R64T R71E): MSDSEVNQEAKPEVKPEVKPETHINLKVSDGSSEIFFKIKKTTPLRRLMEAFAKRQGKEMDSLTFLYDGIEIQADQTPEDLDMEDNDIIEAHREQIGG
substance,measurement,setting,value
SUMO protease 2 (SENP2),in vitro cleavage reaction,[1],Neither protease cleaved SUMO*
same,in vitro cleavage (SDS-PAGE and anti-Smt3 Western blot),[2],wild-type SUMO (Smt3) is cleaved by ULP1 and SENP2 (SUMO protease 1 and 2) in vitro
